Drawing on paper PMC6506404, this text covers stoichiometry N for three substances.

Common to all, as to assay: cryo-EM structure
The target in assay [1] is BMC-T^D2 shell protein of the Haliangium ochraceum (HO) BMC shell (Haliangium ochraceum) (UniProt D0LID6).
Assay [2] concerns the target BMC-T^D3 shell protein of the Haliangium ochraceum (HO) BMC shell (Haliangium ochraceum) (UniProt D0LV02).
The target of assay [3] is BMC-T^S1 shell protein of the Haliangium ochraceum (HO) BMC shell (Haliangium ochraceum).

As usually defined, the stoichiometry N is the number of molecules, sites or subunits per partner or assembly.

“BMC-T^D2 shell protein of the Haliangium ochraceum (HO) BMC shell (from UniProt D0LID6 1-212) (natural protein)” showed a stoichiometry N in assay [1] of 6.
“BMC-T^D3 shell protein of the Haliangium ochraceum (HO) BMC shell (from UniProt D0LV02 1-206) (natural protein)”: the stoichiometry N in assay [2] was 6.
“BMC-T^S1 shell protein of the Haliangium ochraceum (HO) BMC shell (natural protein)” returned a stoichiometry N in assay [3] of 3.
